Measured values taken from paper PMC12840758.

Target: T1, MtbCspB (cold shock protein CspB) (Mycobacterium tuberculosis H37Rv) (UniProt I6WZM9)
T1 sequence: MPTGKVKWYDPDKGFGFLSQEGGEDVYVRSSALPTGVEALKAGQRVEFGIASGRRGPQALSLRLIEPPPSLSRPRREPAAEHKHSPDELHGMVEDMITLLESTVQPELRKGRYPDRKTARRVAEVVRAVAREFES
Assay: SPR
Conditions: […] (or 250 mM) NaCl, 10 mM MgCl2, 0.05% Tween-20, temperature not stated

GUGGUCAGUCGAGUGGUUUUUU [oligoU RNA] was tested, and the Kd was 18.8 nM.

For MTS0997 sRNA (Mcr11, ncRv1264Ac), the Kd was 0.112 nM.

MTS1338 sRNA (DrrS, ncRv11733) showed a Kd of 0.296 nM.
